Tests used:
[1] = target: T1, Recombinant human HGF R/c-Met Fc chimera (R&D systems, cat no. 358-MT/CF) (human, UniProt P08581 25-932); assay: phage ELISA, c-Met 100 ng coated, anti-M13-HRP detection, A450
T1 construct: Bought reagent; also called human c-Met-Fc; human-c-Met; not shown: Fc part of the purchased chimera

mouse c-Met-Fc [2] = target: T2, mouse c-Met-Fc (mouse, UniProt P16056 25-931, limits assumed); assay: SPR (BIAcore), mouse c-Met-Fc immobilized on chip, antibody flowed
T2 construct: Bought reagent (R&D system); also called mouse-c-Met (R&D system); not shown: Fc part
T2 sequence (P16056 25-931 limits assumed): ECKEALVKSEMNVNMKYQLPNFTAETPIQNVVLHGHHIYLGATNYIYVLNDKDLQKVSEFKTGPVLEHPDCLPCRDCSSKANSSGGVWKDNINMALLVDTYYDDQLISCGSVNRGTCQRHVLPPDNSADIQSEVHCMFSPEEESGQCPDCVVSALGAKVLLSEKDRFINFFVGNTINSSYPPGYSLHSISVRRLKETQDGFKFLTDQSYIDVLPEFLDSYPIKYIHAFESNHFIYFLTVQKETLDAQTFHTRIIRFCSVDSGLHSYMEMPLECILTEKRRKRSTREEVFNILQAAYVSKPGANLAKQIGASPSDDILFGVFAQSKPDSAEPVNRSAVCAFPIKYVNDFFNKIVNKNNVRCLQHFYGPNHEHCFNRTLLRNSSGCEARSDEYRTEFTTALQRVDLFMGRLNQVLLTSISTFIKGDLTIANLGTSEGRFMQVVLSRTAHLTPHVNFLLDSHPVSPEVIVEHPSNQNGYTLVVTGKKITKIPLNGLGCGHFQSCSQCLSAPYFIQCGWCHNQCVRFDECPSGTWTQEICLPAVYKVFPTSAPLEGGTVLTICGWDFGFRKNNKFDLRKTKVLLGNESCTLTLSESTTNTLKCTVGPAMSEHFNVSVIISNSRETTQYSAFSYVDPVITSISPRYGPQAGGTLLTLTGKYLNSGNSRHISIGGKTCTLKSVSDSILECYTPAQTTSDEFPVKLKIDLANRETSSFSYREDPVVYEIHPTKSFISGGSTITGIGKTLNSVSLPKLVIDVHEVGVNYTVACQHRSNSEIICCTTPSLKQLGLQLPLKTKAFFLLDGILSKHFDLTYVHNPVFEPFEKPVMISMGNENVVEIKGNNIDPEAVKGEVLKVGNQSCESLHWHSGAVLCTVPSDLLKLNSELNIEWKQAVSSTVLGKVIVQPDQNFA
Method: (§1) The binding capacity to c-Met of the antibody was measured by BIAcore (GE Healthcare). According to the manufacturer's manual, sensorgrams were secured by immobilizing mouse-c-Met and human-c-Met (R&D system) on a CMS chip (GE Healthcare, Sweden), and flowing various amounts of antibodies. Rate constants kon and koff were measured on the basis of the sensorgrams secured at each concentration, and Kd was calculated from the ratio of rate constants (koff/kon) (Table 3). As a result, 1E4-IgG had high binding capacity with mouse-c-Met as well as binding capacity with human-c-Met (FIG. 8).

[3] = target: T1, Recombinant human HGF R/c-Met Fc …; assay: SPR (BIAcore), human c-Met-Fc immobilized on chip, antibody flowed
Method: as §1

[4] = target: T1, Recombinant human HGF R/c-Met Fc …; assay: SPR (BIAcore), human c-Met-Fc immobilized on chip, antibody flowed; koff/kon
Method: as §1

mouse c-Met-Fc [5] = target: T2, mouse c-Met-Fc; assay: SPR (BIAcore), mouse c-Met-Fc immobilized on chip, antibody flowed; koff/kon
Method: as §1

T1 sequence (P08581 25-932, change not shown): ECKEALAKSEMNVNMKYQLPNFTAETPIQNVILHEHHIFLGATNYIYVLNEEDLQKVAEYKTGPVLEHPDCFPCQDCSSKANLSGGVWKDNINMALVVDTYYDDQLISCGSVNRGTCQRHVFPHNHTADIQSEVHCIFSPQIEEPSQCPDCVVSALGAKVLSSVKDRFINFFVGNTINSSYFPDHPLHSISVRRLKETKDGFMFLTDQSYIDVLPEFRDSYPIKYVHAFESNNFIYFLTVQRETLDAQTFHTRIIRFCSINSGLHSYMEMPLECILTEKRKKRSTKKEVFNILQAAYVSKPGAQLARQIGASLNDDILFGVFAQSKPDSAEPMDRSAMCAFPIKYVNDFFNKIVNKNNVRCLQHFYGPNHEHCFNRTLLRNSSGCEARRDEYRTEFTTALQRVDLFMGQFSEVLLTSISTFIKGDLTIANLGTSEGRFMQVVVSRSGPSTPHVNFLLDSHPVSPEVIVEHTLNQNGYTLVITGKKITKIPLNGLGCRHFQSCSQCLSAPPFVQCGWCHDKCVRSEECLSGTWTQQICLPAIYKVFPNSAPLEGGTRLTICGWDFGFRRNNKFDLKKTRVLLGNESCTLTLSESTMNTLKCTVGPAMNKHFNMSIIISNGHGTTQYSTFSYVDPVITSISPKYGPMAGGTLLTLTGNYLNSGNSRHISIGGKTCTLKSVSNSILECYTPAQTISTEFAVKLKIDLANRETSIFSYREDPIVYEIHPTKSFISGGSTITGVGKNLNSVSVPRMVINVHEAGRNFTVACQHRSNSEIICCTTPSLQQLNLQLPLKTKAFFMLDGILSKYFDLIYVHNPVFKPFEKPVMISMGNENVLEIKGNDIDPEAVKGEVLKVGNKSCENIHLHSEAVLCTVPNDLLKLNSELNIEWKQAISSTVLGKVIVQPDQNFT

binding result [1]	koff (mouse c-Met-Fc [2])	kon (mouse c-Met-Fc [2])	koff [3]	kon [3]	Kd [4]	Kd (mouse c-Met-Fc [5])	Binder
binds							1E4-ScFv (scFv, also called soluble 1E4-ScFv; not shown: tags implied by Ni-NTA purification and anti-Myc detection) scFv: QVQLVQSGAEVKKPGESLRISCQGSGYSFPTHWITWVRQMPGKGLEWMGTIDPTDSYNFYGPSFQGHVTISADSSSSTAYLQWSSLKASDTAMYYCARDGNYYDSRGYYYDTFDMWGQGTLVTVSSGLGGLGGGGSGGGGSGGSSGVGSDIQMTQSPSFLSASVGDRVTITCRASQGISTYLAWYQQKPGTAPKLLIYSASTLESGVPSRFSGSGSGTDFTLTISSLQPEDSATYYCQQADSFPLTFGGGTKVEIKRGGASLVE
	0.00159 s⁻¹	2.58e+06 M⁻¹ s⁻¹	0.000807 s⁻¹	2.71e+06 M⁻¹ s⁻¹	298 pM	615 pM	1E4-IgG (antibody, V domains shown, also called 1E4 antibody; anti-c-Met IgG (1E4-IgG)) VH: QVQLVQSGAEVKKPGESLRISCQGSGYSFPTHWITWVRQMPGKGLEWMGTIDPTDSYNFYGPSFQGHVTISADSSSSTAYLQWSSLKASDTAMYYCARDGNYYDSRGYYYDTFDMWGQGTLVTVSS VL: DIQMTQSPSFLSASVGDRVTITCRASQGISTYLAWYQQKPGTAPKLLIYSASTLESGVPSRFSGSGSGTDFTLTISSLQPEDSATYYCQQADSFPLTFGGGTKVEIKR

Reference: patent publication US20170233492A1 (PHARMABCINE, published 2017)
